Assay results reported in paper PMC7415566 (Structure (London, England : 1993), 2020).
Positions count from the first letter of the chain named. In names and notes the source's numbering stands. One block for each binder: values may come before it.

How the values were obtained:
[1] = molecular target: T1, GST-tagged FAM46C (residues 16-358) (human, UniProt Q5VWP2 16-358); test: pull-down
T1 sequence (looked up): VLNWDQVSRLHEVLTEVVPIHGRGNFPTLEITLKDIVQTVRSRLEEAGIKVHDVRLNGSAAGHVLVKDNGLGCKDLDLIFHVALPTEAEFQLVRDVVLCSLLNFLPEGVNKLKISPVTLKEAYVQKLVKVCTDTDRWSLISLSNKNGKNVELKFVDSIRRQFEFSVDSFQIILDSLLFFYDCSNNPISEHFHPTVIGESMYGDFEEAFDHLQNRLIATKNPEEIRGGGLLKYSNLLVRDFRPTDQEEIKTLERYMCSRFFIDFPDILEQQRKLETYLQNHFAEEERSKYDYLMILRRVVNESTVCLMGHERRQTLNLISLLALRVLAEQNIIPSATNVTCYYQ

[2] = molecular target: T2, GST-tagged FAM46D (residues 7-340) (human, UniProt Q8NEK8 7-340); test: pull-down
T2 sequence (looked up): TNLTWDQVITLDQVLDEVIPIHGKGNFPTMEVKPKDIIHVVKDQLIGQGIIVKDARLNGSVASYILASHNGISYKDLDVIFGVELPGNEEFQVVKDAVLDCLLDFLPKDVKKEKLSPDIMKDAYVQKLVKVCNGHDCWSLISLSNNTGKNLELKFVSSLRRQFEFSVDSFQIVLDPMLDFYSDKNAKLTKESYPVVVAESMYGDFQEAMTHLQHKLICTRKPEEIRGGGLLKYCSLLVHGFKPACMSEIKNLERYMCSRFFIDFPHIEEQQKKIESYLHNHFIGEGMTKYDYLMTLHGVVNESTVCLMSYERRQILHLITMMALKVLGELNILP

[3] = molecular target: T3, human FAM46C (residues 16-358), NTase domain (human, UniProt Q5VWP2 16-358); test: crystal structure
T3 sequence (looked up): T1 sequence (looked up)

[4] = molecular target: T4, FAM46C E166Q/F193D/F206D (residues 16-350) (human, UniProt Q5VWP2 16-350, E166Q | F193D | F206D); test: crystal structure
T4 sequence (looked up): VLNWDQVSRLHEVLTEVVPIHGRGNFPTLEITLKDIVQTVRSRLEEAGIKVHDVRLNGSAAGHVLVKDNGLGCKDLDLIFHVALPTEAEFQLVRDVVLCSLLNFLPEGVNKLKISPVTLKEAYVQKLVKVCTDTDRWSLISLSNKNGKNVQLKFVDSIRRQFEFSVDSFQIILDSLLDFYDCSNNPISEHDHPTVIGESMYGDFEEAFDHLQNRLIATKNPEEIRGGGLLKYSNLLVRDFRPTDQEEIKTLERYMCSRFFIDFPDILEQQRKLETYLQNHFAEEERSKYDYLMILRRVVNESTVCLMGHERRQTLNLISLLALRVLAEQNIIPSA

- binding result [1]: binds
- binding result [2]: binds
- binding result [3]: binds
- binding result [4]: binds
B1: CPB1-2 of human PLK4 (residues 580-810) (domain or fragment, UniProt O00444 580-810, looked up)
chain: WGYQNRTLRSITSPLVAHRLKPIRQKTKKAVVSILDSEEVCVELVKEYASQEYVKEVLQISSDGNTITIYYPNGGRGFPLADRPPSPTDNISRYSFDNLPEKYWRKYQYASRFVQLVRSKSPKITYFTRYAKCILMENSPGADFEVWFYDGVKIHKTEDFIQVIEKTGKSYTLKSESEVNSLKEEIKMYMDHANEGHRICLALESIISEEERKTRSAPFFPIIIGRKPGST

- binding result [1]: binds
B2: CPB1-2 of human PLK4 (residues 580-810) N669R (domain or fragment, UniProt O00444 580-810, looked up)
chain: B1 chain with N90R
